The results in this text go back to paper PMC7055384, “The resolution revolution in cryoEM requires high-quality sample preparation: a rapid pipeline to a high-resolution map of yeast fatty acid synthase” (IUCrJ, 2020).

The data set deals with the molecule itself. The data set is described as follows: cryo-EM structure; FAS (0.3 mg/ml, buffer 100 mM sodium phosphate pH 6.5) incubated with 1 mM NADPH and 1 mM malonyl-CoA for 5 min, on hydrophilized graphene-coated Quantifoil grids; D3 symmetry applied; 3.1 Å.

B1: yeast fatty acid synthase subunit α (FAS2) (enzyme, S. cerevisiae)
chain: MKPEVEQELAHILLTELLAYQFASPVRWIETQDVFLKDFNTERVVEIGPSPTLAGMAQRTLKNKYESYDAALSLHREILCYSKDAKEIYYTPDPSELAAKEEPAKEEAPAPTPAASAPAPAAAAPAPVAAAAPAAAAAEIADEPVKASLLLHVLVAHKLKKSLDSIPMSKTIKDLVGGKSTVQNEILGDLGKEFGTTPEKPEETPLEELAETFQDTFSGALGKQSSSLLSRLISSKMPGGFTITVARKYLQTRWGLPSGRQDGVLLVALSNEPAARLGSEADAKAFLDSMAQKYASIVGVDLSSAASASGAAGAGAAAGAAMIDAGALEEITKDHKVLARQQLQVLARYLKMDLDNGERKFLKEKDTVAELQAQLDYLNAELGEFFVNGVATSFSRKKARTFDSSWNWAKQSLLSLYFEIIHGVLKNVDREVVSEAINIMNRSNDALIKFMEYHISNTDETKGENYQLVKTLGEQLIENCKQVLDVDPVYKDVAKPTGPKTAIDKNGNITYSEEPREKVRKLSQYVQEMALGGPITKESQPTIEEDLTRVYKAISAQADKQDISSSTRVEFEKLYSDLMKFLESSKEIDPSQTTQLAGMDVEDALDKDSTKEVASLPNKSTISKTVSSTIPRETIPFLHLRKKTPAGDWKYDRQLSSLFLDGLEKAAFNGVTFKDKYVLITGAGKGSIGAEVLQGLLQGGAKVVVTTSRFSKQVTDYYQSIYAKYGAKGSTLIVVPFNQGSKQDVEALIEFIYDTEKNGGLGWDLDAIIPFAAIPEQGIELEHIDSKSEFAHRIMLTNILRMMGCVKKQKSARGIETRPAQVILPMSPNHGTFGGDGMYSESKLSLETLFNRWHSESWANQLTVCGAIIGWTRGTGLMSANNIIAEGIEKMGVRTFSQKEMAFNLLGLLTPEVVELCQKSPVMADLNGGLQFVPELKEFTAKLRKELVETSEVRKAVSIETALEHKVVNGNSADAAYAQVEIQPRANIQLDFPELKPYKQVKQIAPAELEGLLDLERVIVVTGFAEVGPWGSARTRWEMEAFGEFSLEGCVEMAWIMGFISYHNGNLKGRPYTGWVDSKTKEPVDDKDVKAKYETSILEHSGIRLIEPELFNGYNPEKKEMIQEVIVEEDLEPFEASKETAEQFKHQHGDKVDIFEIPETGEYSVKLLKGATLYIPKALRFDRLVAGQIPTGWNAKTYGISDDIISQVDPITLFVLVSVVEAFIASGITDPYEMYKYVHVSEVGNCSGSGMGGVSALRGMFKDRFKDEPVQNDILQESFINTMSAWVNMLLISSSGPIKTPVGACATSVESVDIGVETILSGKARICIVGGYDDFQEEGSFEFGNMKATSNTLEEFEHGRTPAEMSRPATTTRNGFMEAQGAGIQIIMQADLALKMGVPIYGIVAMAATATDKIGRSVPAPGKGILTTAREHHSSVKYASPNLNMKYRKRQLVTREAQIKDWVENELEALKLEAEEIPSEDQNEFLLERTREIHNEAESQLRAAQQQWGNDFYKRDPRIAPLRGALATYGLTIDDLGVASFHGTSTKANDKNESATINEMMKHLGRSEGNPVIGVFQKFLTGHPKGAAGAWMMNGALQILNSGIIPGNRNADNVDKILEQFEYVLYPSKTLKTDGVRAVSITSFGFGQKGGQAIVVHPDYLYGAITEDRYNEYVAKVSAREKSAYKFFHNGMIYNKLFVSKEHAPYTDELEEDVYLDPLARVSKDKKSGSLTFNSKNIQSKDSYINANTIETAKMIENMTKEKVSNGGVGVDVELITSINVENDTFIERNFTPQEIEYCSAQPSVQSSFAGTWSAKEAVFKSLGVKSLGGGAALKDIEIVRVNKNAPAVELHGNAKKAAEEAGVTDVKVSISHDDLQAVAVAVSTKK
modifications: additional density at Ser1440 suggesting phosphorylation
notes: fatty acid synthase subunit α, S. cerevisiae, encoded by FAS2 on a pRS shuttle vector; holds the PPT domain at its C-terminus; this follows from DM4 holding the PPT domain, which it places in subunit α
As to B1, the binding result is listed as “binds”.
